Results published in the supplement of paper PMC12764529.
± gives the half width of the 95% confidence interval.

Experiment: folding stability dG unfold from chymotrypsin proteolysis; higher = more stable
Outline: (§1)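 Mini-proteins designed to be under 80 residues and free of cysteine were carried in a PA-tagged cDNA display construct and digested with trypsin and with chymotrypsin. Each protease was applied at 11 threefold-diluted concentrations, alongside a no-protease condition, before sequencing. K50 came from Bayesian fitting of the sequencing counts, and unfolding free energy was obtained by comparing it with a sequence-predicted unfolded-state K50 and a shared folded-state K50, for each protease separately or for both together. Designs were retained only if their AlphaFold2 dimer inter-PAE exceeded 15.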

Row | Sequence | folding stability dG unfold [kcal/mol]
1 | SAGGSAGGSAPYFVRIKIENPDNGKPHSIEIPPNMTPEQAKEMAEELAEMHGWKITDVEYFPSAGGSAGGSA [r18_322_TrROS] | 0.433 ± 0.11
2 | SAGGSAGGSAGGMKIKITVEVFDPNTGKVLKTEEFTSLEEAEKKVKEEDPNKVKVTVKEESAGGSAGGSAGG [r7_201_JUSTAS] | 1.71 ± 0.032
3 | SAGGSAGGEKKGKPPVKIVIKVRDVDTGETRTITLTIEPDMTVEEIRELLRALLPPGAEVEIVPSAGGSAGG [r6_440_TrROS_Hall] | 3.45 ± 0.15
4 | SAGGSAGGSAGGKKITIKNENGETFTVTEIVKYDEETKEFYIKVEVNGKTYLFKVNLEDLSAGGSAGGSAGG [r7_236_TrROS_Hall] | 3.572 ± 0.024
5 | SAGGSAGGSMSVTLVKVERDPANNTITVTIKLPSGETAFTKTVAPGTTVTITFPDGTVLTVTESAGGSAGGS [r12_441_JUSTAS] | 3.1 ± 0.035
6 | SAGGDTIMIPIRGKGSLEQAKEWAKEIAREFYREGWKNIKISVWVYDKENGEPVYRKEAEIPIKPGDSAGGS [r8_33_TrROS] | 2.14 ± 0.18
7 | SAGGNRIMFFFDTPEQAREIAKELAKNFPGYKLDVEVHTQEMKVKDPDNGEEQRYPMVMVEIEIKPPSAGGS [r16_828_TrROS] | 1.44 ± 0.13
8 | SAGGSAGGGTIEIEDPNGVKVEIEIDPDDGYTIIKAFMPDGWVITILMPPEGKIEIETFPLEPPSAGGSAGG [r6_415_TrROS] | 2.96 ± 0.23
9 | SAGGSAGGSAGGIKIERDPNYWVIEIEIPIYMPQPDPDGEIKEPKPIAPITITILIPPGGSAGGSAGGSAGG [r7_3_TrROS] | 2.22 ± 0.11
10 | PANVTYEFELADGYRVRVTLNPETGTATVEVEPVPERPPVAPVFIPRTLPEEEREALRRAAEEAGLEVVVGS [r1_242_TrMRF] | 3.348 ± 0.031
11 | SAGGSAGGGRRLLIEADSEELRELLEALPPEELKNVRVYGPGGVEFPAGEIEKYKYGPLLIEVPSAGGSAGG [r6_428_TrMRF] | 0.756 ± 0.18
12 | SAEVTSTFDPSTGILTVTVKLEDPETGKPIPAEEVAAEVEKEYPNSTILSIEPDPEGYVTITVKVPPELVSA [r9_87_JUSTAS] | 3.16 ± 0.049
13 | SAGGSAGGSAGMTIKVYDPKTGEKILEIEIDPSLTPEQLKALADELRKKLPPGARIEIVPSAGGSAGGSAGG [r11_1081_TrROS_Hall] | 3.72 ± 0.088
14 | SAGGEDGKWREQTFTIENPEDGKKAKIEIEYNPENGYASIEFPGNGKKIDVPFKSLEDILDAIKKIGISAGG [r13_439_TrROS] | 0.0872 ± 0.16
15 | SAGYEIVKEIAEELGFPVEIDRIEYDPDHGTIKFTARMRPKDGKKYRVQIMIHVPPENGNVDIELEYVPSAG [r5_929_TrROS] | 2.6 ± 0.16
16 | SAGGSVEELRELARKLAEELGLEVVEVEVEEREDGKVTVTVTIKGPPKVEIKLEVTENEVKITEIKPSAGGS [r8_432_TrROS_Hall] | 3.35 ± 0.26
17 | SAGGSAGGSAGGGMRTVTTVSSFTFEKNGGEKFVTTTVVVPLYVPPRVFPPPENIELLLLSAGGSAGGSAGG [r17_454_JUSTAS] | 1.36 ± 0.27
18 | SAGMKPGETITIENLPEGAIIYNKNGEKVEKVKEVKVTVEDGKITIEVKLEDGSTKTFTVPLEDLKIVPSAG [r5_850_TrROS_Hall] | 3.05 ± 0.058
19 | SAGGSAGGSNYVVRIKIRYPDPDGKPIYEHTIDIPVPDEEITADELRKQLKPPGYEITDIEVLSAGGSAGGS [r12_611_TrROS] | 0.314 ± 0.16
20 | SAGMKIEIEIVKVEVKEVNGKKVIKVEIKVKVSAEELGLSEEELKEKLEEEVEELARELAEKLNVEVVPSAG [r5_333_TrROS_Hall] | 1.36 ± 0.1
21 | SAGGSAGGMKITVEEVKVEKKEDGSYRVRIRLKNGEVLELEFESLEEALAAAKKLGAEITEIEPSAGGSAGG [r6_84_TrROS_Hall] | 3.54 ± 0.038

Experiment: folding stability dG unfold (combined trypsin and chymotrypsin); higher = more stable
Outline: as §1

Row | Sequence | folding stability dG unfold [kcal/mol]
22 | GPMTVSTKTSTKTYFDPETGVETVVEPVTVTVTFPTSPTVTYTTTVTTTTKVERLPDGPLRTETTTTTTVSS [r1_296_JUSTAS] | 0.0169 ± 0.14
23 | SAGGSAGGSAGGPEIITFRNPGNGVTLMVWRTPNNITVSIYNPDGPQKEIPIPPGEPIFSAGGSAGGSAGGS [r10_976_TrROS] | 0.875 ± 0.19
24 | SAGGMPLEHIAEITEVRTFPDGRKEIRLLVEDPEVAEEGHPELREEMAELLRRLFEEEGLEVRVVPGESAGG [r13_243_TrMRF] | 0.2 ± 0.19
25 | SAGGSAKPVKVDTLVLTAPFESKEEAEKAVEEFAKAVAEKLPKDVKVEVEVKYDPETKTFTAVVKASAGGSA [r15_981_TrMRF] | 2.34 ± 0.051
26 | SAGGSAGGSHTIEIWIVKFPPDDFKGKTIEEMAKKFGDPDMPVEIVPIEITLPPDALKALLKNSAGGSAGGS [r12_178_TrROS] | 0.846 ± 0.059
27 | SAGGKPPKTVTVTLTLPDGVKITIEYNEETGEVTVTIEVFKDGKLVKTITITAPSLDEALEALKKLLSAGGS [r16_55_TrROS_Hall] | 3.87 ± 0.13
28 | SAGGSAGGSAGGMLKIKVYRFDKNGKLVEEEEIELPENVKEIVIKDEKTGKYYKVEIVDSAGGSAGGSAGGS [r10_970_TrROS_Hall] | 1.76 ± 0.15
29 | SAGGPKKITIHITEMYRNKNGPYYYRVEIRDGGKPKEYNFPFDSPDEMLDNIEKLADELGLKVEIEPFSAGG [r13_750_TrROS] | 1.88 ± 0.22
30 | SAGGSAGGSAIKAPPNSKIIKIEVKPLPNGDLLVEITIIDVPPDDSIGSGKYKILIKLEKGGSAGGSAGGSA [r18_273_TrMRF] | 3.02 ± 0.26
31 | SAGGSAGGMKPISRSTYTNPLNGTTITVTKYPETGEYVITLPDGTTYTVPKSVPITSVEEAIKNSAGGSAGG [r6_72_JUSTAS] | 0.977 ± 0.096
32 | SGSTTLKTTTIPEGPLTVETTISPDGVVTGTIYDPEGKKIADYTMTYTWTTLPNGEKRLETVTVTINLGLSA [r9_434_JUSTAS] | 2.35 ± 0.07
33 | SAGGSAGGSAGGVAVPKEGIEEFISQLPPDTVVTLYDPETGKDIKVTVSNGKVTISPEGSAGGSAGGSAGGS [r10_137_JUSTAS] | 1.17 ± 0.12
34 | SAGLSEIVKKLFPEEEIEIEVEERTLPGPPNIPVVEFDVRITFKDGRTFRARAIRYPDFVLIEVEPLEPSAG [r14_28_TrMRF] | 3.62 ± 0.11
35 | SDWKIVDIEREGNWYTITIQFKNPDGNPWMVTLYMPPNGPYRVEVYPPGDGKEREVRVPMDDIDEILDAISA [r9_91_TrROS] | 2.49 ± 0.11
36 | SAGGSAGGSASSTLRTVRFPPDTPLEEVKEALAAEFPDRDPNIKILEVRPEDGGLVVTVEVVSAGGSAGGSA [r18_360_JUSTAS] | 1.62 ± 0.057
37 | SAGGSAGGSAGLPVLRPLIIPGPSVLRILEVRLREDGSVEVISEETIPLPPPIPSPSELTSAGGSAGGSAGG [r11_843_TrMRF] | 0.905 ± 0.13
38 | SAGGSAGGSAGGSPLKIKIVEVKEHKNPDGKPRRRIMMRFPNGRTLHIDMNGNLEIMPASAGGSAGGSAGGS [r4_111_TrROS] | 0.188 ± 0.22
39 | SAGGSAGGSAGDPGQELMFMWIWPWPNPDGQPWVRIFMWSVRVDDGKIKEIEPTTMWIPLSAGGSAGGSAGG [r11_35_TrROS] | 3.55 ± 0.26
40 | SAGGSAGGSAGIEAVVKELEELGYEVEATPEPDGSVVIEVTLKNGEKLTVRVGPFGGVEASAGGSAGGSAGG [r17_503_TrMRF] | 2.24 ± 0.13
41 | SAGGMSPEELASLSPEERRAVVEEALRERLARERPGAPPDFALEDVPVTVRDPATGTTTTVTVRLEAASAGG [r13_555_JUSTAS] | 0.177 ± 0.16
42 | SAGGSAGGMAKVKILKIKPVNTGEDGSKSVEIEVEFENPNPEVAKAFVEEIAKKLGFEEVEDTTSAGGSAGG [r6_317_TrMRF] | 0.406 ± 0.28

Row | Sequence | folding stability dG unfold [kcal/mol]
43 | SAGGSAGGSAPYFVRIKIENPDNGKPHSIEIPPNMTPEQAKEMAEELAEMHGWKITDVEYFPSAGGSAGGSA [r18_322_TrROS] | 0.371 ± 0.068
44 | SAGGSAGGSAGGMKIKITVEVFDPNTGKVLKTEEFTSLEEAEKKVKEEDPNKVKVTVKEESAGGSAGGSAGG [r7_201_JUSTAS] | 1.33 ± 0.077
45 | SAGGSAGGEKKGKPPVKIVIKVRDVDTGETRTITLTIEPDMTVEEIRELLRALLPPGAEVEIVPSAGGSAGG [r6_440_TrROS_Hall] | 3.08 ± 0.16
46 | SAGGSAGGSAGGKKITIKNENGETFTVTEIVKYDEETKEFYIKVEVNGKTYLFKVNLEDLSAGGSAGGSAGG [r7_236_TrROS_Hall] | 3.2 ± 0.05
47 | SAGGSAGGSMSVTLVKVERDPANNTITVTIKLPSGETAFTKTVAPGTTVTITFPDGTVLTVTESAGGSAGGS [r12_441_JUSTAS] | 3.07 ± 0.061
48 | SAGGDTIMIPIRGKGSLEQAKEWAKEIAREFYREGWKNIKISVWVYDKENGEPVYRKEAEIPIKPGDSAGGS [r8_33_TrROS] | 1.94 ± 0.22
49 | SAGGNRIMFFFDTPEQAREIAKELAKNFPGYKLDVEVHTQEMKVKDPDNGEEQRYPMVMVEIEIKPPSAGGS [r16_828_TrROS] | 1.52 ± 0.17
50 | SAGGSAGGGTIEIEDPNGVKVEIEIDPDDGYTIIKAFMPDGWVITILMPPEGKIEIETFPLEPPSAGGSAGG [r6_415_TrROS] | 2.43 ± 0.35
51 | SAGGSAGGSAGGIKIERDPNYWVIEIEIPIYMPQPDPDGEIKEPKPIAPITITILIPPGGSAGGSAGGSAGG [r7_3_TrROS] | 2.21 ± 0.2
52 | PANVTYEFELADGYRVRVTLNPETGTATVEVEPVPERPPVAPVFIPRTLPEEEREALRRAAEEAGLEVVVGS [r1_242_TrMRF] | 3.06 ± 0.054
53 | SAGGSAGGGRRLLIEADSEELRELLEALPPEELKNVRVYGPGGVEFPAGEIEKYKYGPLLIEVPSAGGSAGG [r6_428_TrMRF] | 0.669 ± 0.1
54 | SAEVTSTFDPSTGILTVTVKLEDPETGKPIPAEEVAAEVEKEYPNSTILSIEPDPEGYVTITVKVPPELVSA [r9_87_JUSTAS] | 2.79 ± 0.039
55 | SAGGSAGGSAGMTIKVYDPKTGEKILEIEIDPSLTPEQLKALADELRKKLPPGARIEIVPSAGGSAGGSAGG [r11_1081_TrROS_Hall] | 4.38 ± 0.13
56 | SAGGEDGKWREQTFTIENPEDGKKAKIEIEYNPENGYASIEFPGNGKKIDVPFKSLEDILDAIKKIGISAGG [r13_439_TrROS] | 0.0961 ± 0.12
57 | SAGYEIVKEIAEELGFPVEIDRIEYDPDHGTIKFTARMRPKDGKKYRVQIMIHVPPENGNVDIELEYVPSAG [r5_929_TrROS] | 2.56 ± 0.2
58 | SAGGSVEELRELARKLAEELGLEVVEVEVEEREDGKVTVTVTIKGPPKVEIKLEVTENEVKITEIKPSAGGS [r8_432_TrROS_Hall] | 3.42 ± 0.23
59 | SAGGSAGGSAGGGMRTVTTVSSFTFEKNGGEKFVTTTVVVPLYVPPRVFPPPENIELLLLSAGGSAGGSAGG [r17_454_JUSTAS] | 1.61 ± 0.26
60 | SAGMKPGETITIENLPEGAIIYNKNGEKVEKVKEVKVTVEDGKITIEVKLEDGSTKTFTVPLEDLKIVPSAG [r5_850_TrROS_Hall] | 2.31 ± 0.14
61 | SAGGSAGGSNYVVRIKIRYPDPDGKPIYEHTIDIPVPDEEITADELRKQLKPPGYEITDIEVLSAGGSAGGS [r12_611_TrROS] | 0.57 ± 0.12
62 | SAGMKIEIEIVKVEVKEVNGKKVIKVEIKVKVSAEELGLSEEELKEKLEEEVEELARELAEKLNVEVVPSAG [r5_333_TrROS_Hall] | 2.21 ± 0.51
63 | SAGGSAGGMKITVEEVKVEKKEDGSYRVRIRLKNGEVLELEFESLEEALAAAKKLGAEITEIEPSAGGSAGG [r6_84_TrROS_Hall] | 3.35 ± 0.04
